Publication PMC12511625

Assays:
[1] = target: S. venezuelae ParB (wild type, recombinant, cleaved from GST) (S. venezuelae); settings: scale: μmol of phosphate released by 1 μmol of ParB in one hour
[2] = target: S. venezuelae ParB_(SMC-) variant (TDR 132-134 to AAT, D164R) (S. venezuelae); settings: scale: μmol of phosphate released by 1 μmol of ParB in one hour

CTP hydrolysis (phosphate released) by ParB (2 μM) with parS-containing plasmid DNA and FLAG-SMC (0.02 μM, 1:100 molar ratio); without FLAG-SMC 65.1 +/− 2.9 [1]: 35.2
CTP hydrolysis (phosphate released) by ParB (SMC-) (2 μM) with parS-containing plasmid DNA and FLAG-SMC (1:100 molar ratio); without FLAG-SMC 46.7 +/− 3.9; said to be similar with and without SMC [2]: 39
Substance: FLAG-SMC of S. venezuelae (natural protein)
